The values below come from US20190382462A1, “METHODS AND COMPOSITIONS FOR TREATING HPA HYPERACTIVITY” (priority 2017, published 2019).

As usually defined, the Kd is the equilibrium constant for the complex coming apart.

Series [1] can be described thus: Single-dose serum pharmacokinetics of CRF-BP-Fc in mice (sandwich ELISA). The series is classed as in vivo, mouse. The settings on record: two doses (15 and 45 μg) in mice. As for the experimental part: (§1) FIG. 2A and FIG. 2B: Serum concentration of CRF-BP-Fc. FIG. 2A: A CRF-BP-Fc fusion protein (SEQ ID NO:16), composed of CRF-BP (25-322) fused to mouse IgG1 Fc was administered to C57B16 mice at 2 doses (15 μg/mouse and 45 μg/mouse). […] FIG. 2B: Freezing in response to mild footshock, a mouse model of stress, was reduced in mice treated with the CRF-BP-Fc fusion protein on the day of treatment (*<0.05 from vehicle-treated mice).
Mice are bled at 1, 6, and 12 hours and at 1, 2, 4, 6, 8, and 12 days post-injection by retro-orbital bleeding. […] The present blood sampling times presuppose a half-life value closer to those reported for human IgG in the mouse.
Concentrations in sera over time of CRF-BP-Fc or CRF-BP-albumin constructs are measured with a sandwich ELISA, which has already been established with a lower limit of detection of 1 ng/ml in serum. This ELISA assay consists of immobilized biotinylated CRF to capture serum CRF-BP-Fc on avidin plates followed by detection with a commercial anti-Fc antibody. This assay is used to monitor the serum concentration of CRF-BP-Fc in preliminary studies. CRF-BP-albumin constructs are detected with the same design using antibodies to albumin and blocking reagents designed for albumin ELISA quantification (e.g., Serum Albumin Sandwich ELISA Kit from LifeSpan BioSciences). […]

The next series relates to corticosterone (CORT). Put plainly: Serum corticosterone (CORT) under repeated footshock stress. It is filed as in vivo. The conditions noted are these: single administration 45 μg/mouse, C57Bl6 mice. As for the experimental part:
FIG. 3: Administration of a CRF-BP-Fc fusion (SEQ ID NO: 16) delayed the increased in basal serum glucocorticoid levels (“CORT” in pg/mL×1000), resulting from repeated stress. Repeated delivery of footshock to mice (dotted vertical lines indicate times for delivery of footshock) results in elevated baseline serum corticosterone (CORT) level in C57B16 mice (black circles), indicative of a chronic stress state. A single administration of CRF-BP-Fc fusion protein at a dose of 45 μg/mouse delayed such increase of baseline serum CORT (black squares). O=vehicle-treated mice; 45=CRF-BP-Fc-treated mice at 45 μg/mouse; *=p<0.05 from […]; CORT: plasma corticosterone levels (ng/ml).
CRFBP-Fc fusion protein was administered to C57B16 mice at a dose of 300 μg/mouse. Data points represent CORT concentration before and after injection of CRFBP-Fc containing IgG2-derived Fc (drug) and at 3 time points preceding repeated footshocks (FS). […] 3 hr after injection compared to vehicle group (**p<0.01, Fisher's LSD).
Stimulated CORT concentrations after injection of CRFBP-Fc containing IgG2-derived Fc and at 3 time points after repeated footshocks (FS). […] 3 hr after injection, FS1, and FS2 compared to vehicle group, respectively (*p<0.05, ****p<0.0001, Fisher's LSD). […]

Series [2] has as its target T1, CRF (Homo sapiens, UniProt P06850).
T1 construct: Biotinylated CRF was immobilized on an avidin-coated ELISA plate
T1 sequence (P06850 154-194 limits assumed): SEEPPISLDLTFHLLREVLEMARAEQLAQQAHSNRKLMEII
Briefly: CRF binding ELISA (biotinylated CRF on avidin-coated plate). The settings on record: data not shown. An excerpt: Biotinylated CRF was immobilized on an avidin-coated ELISA plate. […] OD=optical density.
A general note: In an ELISA, binding on a coated surface is turned into a signal by an enzyme label.

The test system of another series is C57BL/6J mice. Briefly: Shock-induced freezing test (mild footshock stress model). The series is classed as in vivo, mouse. The protocol: as §1
SIF is a defensive behavior observed in response to fearful stimuli exposure (163), and it is used to determine the efficacy of the constructs under study (FIG. 1B). Testing takes place in a Mouse NIR Video Fear Conditioning System (Med Associates, St. Albans, Vt.) housed in soundproof boxes. The session consists of a 2-min habituation period followed by three 1.5 mA footshocks lasting 1 sec and separated by 20 sec. Duration of freezing behavior is measured for 15 min. Freezing behavior, i.e., the absence of all voluntary movements except breathing, is measured in all sessions by real-time digital video recordings calibrated to distinguish between subtle movements such as whisker twitch or tail flick and freezing behavior. This test is performed at days 1 and 4 after administration. Before and after footshock, mice are bled as outlined above for determination of serum corticosterone and compound levels. […]

Series [3] addresses T1, CRF. The conditions noted are these: cited from earlier work.
The conditions of series [4]: humans; cited from earlier work.
Another series deals with T2, Ucn1 (Homo sapiens, UniProt P55089).
T2 construct: the related peptide urocortin 1 (Ucn1)
T2 sequence (P55089 83-122 limits assumed): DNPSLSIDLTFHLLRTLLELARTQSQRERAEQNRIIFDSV
The settings on record: cited from earlier work.

The target in another series is T3, r/hCRF (Homo sapiens, UniProt P06850).
T3 sequence (P06850 154-194 limits assumed): T1 sequence (P06850 154-194 limits assumed)
The conditions noted are these: alanine mutants of CRF-BP; cited from earlier work.

Another series deals with T4, rUcn 1 (Rattus norvegicus, UniProt P55090).
T4 sequence (P55090 81-120 limits assumed): T2 sequence (P55089 83-122 limits assumed) with N2D, S4P
The conditions noted are these: alanine mutants of CRF-BP; cited from earlier work.

Positions count from the first letter of the chain named. Names may count otherwise. Read-outs that look alike come from different tables or passages of the source.

B1: CRF-BP-Fc (SEQ ID NO:16): fusion protein composed of CRF-BP (25-322) fused to mouse IgG1 Fc (protein, listed as Mus musculus)
chain: MSPNFKLQCHFILIFLTALRGESRYLELREAADYDPFLLFSANLKRELAGEQPYRRALRCLDMLSLQGQFTFTADRPQLHCAAFFISEPEEFITIHYDQVSIDCQGGDFLKVFDGWILKGEKFPSSQDHPLPSAERYIDFCESGLSRRSIRSSQNVAMIFFRVHEPGNGFTLTIKTDPNLFPCNVISQTPNGKFTLVVPHQHRNCSFSIIYPVVIKISDLTLGHVNGLQLKKSSAGCEGIGDFVELLGGTGLDPSKMTPLADLCYPFHGPAQMKVGCDNTVVRMVSSGKHVNRVTFEYRQLEPYELENPNGNSIGEFCLSGLTGGCKPCICTVPEVSSVFIFPPKPKDVLTITLTPKVTCVVVDISKDDPEVQFSWFVDDVEVHTAQTQPREEQFNSTFRSVSELPIMHQDWLNGKEFKCRVNSAAFPAPIEKTISKTKGRPKAPQVYTIPPPKEQMAKDKVSLTCMITDFFPEDITVEWQWNGQPAENYKNTQPIMDTDGSYFVYSKLNVQKSNWEAGNTFTCSVLHEGLHNHHTEKSLSHSPGK
As for B1, the “pharmacokinetic profile from serum concentrations” value in series [1] is listed as “linear pharmacokinetics with a biexponential profile”. In addition, in the series on corticosterone (CORT), the “increase in basal serum glucocorticoid (CORT) levels resulting from repeated stress” value was “delayed”. The “effect of fusion to mouse IgG1 Fc on CRF binding” value with CRF [2] was “did not alter CRF binding”. Also, the “circulating serum concentrations effective in reducing behavioral responses to stress” value in the series with C57BL/6J mice (mice) was 1 to 3 µg/mL. Further, in the series on C57BL/6J mice (single administration, day of treatment, vs vehicle-treated mice), the “freezing in response to mild footshock” value was “reduced”.

B2: CRF-BP: binding protein that specifically binds to CRF (protein, UniProt P24387 25-322, looked up)
Corticotropin-releasing …: YLELREAADYDPFLLFSANLKRELAGEQPYRRALRCLDMLSLQGQFTFTADRPQLHCAAFFISEPEEFITIHYDQVSIDCQGGDFLKVFDGWILKGEKFPSSQDHPLPSAERYIDFCESGLSRRSIRSSQNVAMIFFRVHEPGNGFTLTIKTDPNLFPCNVISQTPNGKFTLVVPHQHRNCSFSIIYPVVIKISDLTLGHVNGLQLKKSSAGCEGIGDFVELLGGTGLDPSKMTPLADLCYPFHGPAQMKVGCDNTVVRMVSSGKHVNRVTFEYRQLEPYELENPNGNSIGEFCLSGL
For the molecule B2, the Kd with CRF [3] (range printed without naming the ligand, read-out: KD (high affinity of CRF-BP)) is 0.1 to 0.2 nM; with CRF [3] (read-out: KD for CRF), 0.2 nM; with Ucn1 it was 0.1 nM. For the same molecule, the plasma half-life result in series [4] is given as “minutes”.

B3: W116A: CRF-BP alanine mutant (protein, UniProt P24387 25-322, looked up, variant W116A)
Corticotropin-releasing …: B2 Corticotropin-releasing … with W92A
Take B3: the “loss of affinity for r/hCRF” value in the series with r/hCRF is recorded as “complete”. In addition, the “loss of affinity for rUcn 1” value in the series with rUcn 1 is “complete”.

B4: Y211A: CRF-BP alanine mutant (protein, UniProt P24387 25-322, looked up, variant Y211A)
Corticotropin-releasing …: B2 Corticotropin-releasing … with Y187A
As for B4, the “loss of affinity for r/hCRF” value in the series with r/hCRF is “complete”. Also, the “loss of affinity for rUcn 1” value in the series with rUcn 1 is listed as “complete”.

B5: Q188A: CRF-BP alanine mutant (protein, UniProt P24387 25-322, looked up, variant Q188A)
Corticotropin-releasing …: B2 Corticotropin-releasing … with Q164A
Consider B5, for which the “loss of affinity for r/hCRF” value in the series with r/hCRF was “partial”. In the series with rUcn 1, the “loss of affinity for rUcn 1” value is reported as “partial”.
